Experimental data from the DeepSol protein solubility set.

assay: soluble on expression in E. coli; label from the status in PepcDB or PDB records

Sequence | soluble on expression in E. coli
MPLNERQLDAFADEHAGQIPFDASPRHLAGPGDARHVTHGLAAAGWATISDPLSAEIVMASPDHRYRLQYDPQSATSAWWRLRATSADNEHGWYAEFGELVPAEVLSSLTDALIAPASPQSDPWQPVTSAGWRPDEAGAAHSPDAMCHIERRPTSEFHERPSWHIEVRDAHDTQYPGPRIWHAYLDEHAPDHLVGAFLSALTDQSPLQRGMFDRTAHYSAVKEPSPLRPQQVVDAHTSRVKVLRAQARAMRRQQTAPAKPPAPTTAVQPAARRLEHHHHHH | not soluble
MEKERETLQAWKERVGQELDRVMAFWLEHSHDREHGGFFTCLGRDGRVYDDLKYVWLQGRQVWMYCRLYRKLERFHRPELLDAAKAGGEFLLRHARVAPPEKKCAFVLTRDGRPVKVQRSIFSECFYTMAMNELWRVTAEARYQSEAVDMMDQIVHWVREDPSGLGRPQLPGAVASESMAVPMMLLCLVEQLGEEDEELAGRYAQLGHWCARRILQHVQRDGQAVLENVSEDGEELSGCLGRHQNPGHALEAGWFLLRHSSRSGDAKLRAHVIDTFLLLPFRSGWDADHGGLFYFQDADGLCPTQLEWAMKLWWPHSEAMIAFLMGYSESGDPALLRLFYQVAEYTFRQFRDPEYGEWFGYLNREGKVALTIKGGPFKGCFHVPRCLAMCEEMLSALLSRLA | soluble
MGSSHHHHHHSSGLVPRGSHMTRSKVAIIGGGPAGSVAGLTLHKLGHDVTIYERSAFPRYRVGESLLPGTMSILNRLGLQEKIDAQNYVKKPSATFLWGQDQAPWTFSFAAPKVAPWVFDHAVQVKREEFDKLLLDEARSRGITVHEETPVTDVDLSDPDRVVLTVRRGGESVTVESDFVIDAGGSGGPISRKLGVRQYDEFYRNFAVWSYFKLKDPFEGDLKGTTYSITFEDGWVWMIPIKDDLYSVGLVVDRSKSAEVREQGADAFYSSTLAKCAKAMDILGGAEQVDEVRIVQDWSYDTEVFSADRFFLCGDAACFTDPLFSQGVHLASQSAVSAAAAIDRITRHGDEKDAVHAWYNRTYREAYEQYHQFLASFYTFASFTEPDSEFWRKRRITESDDDRLTRKKWFESLAGNGPEDPSGTVASFRDRASTMIAIGRHQRPELSDDFSEAELNPARVRWISDLTKRLNSITRFKWTGGKAVLKQHYRVEPIGFRLEQREVLANGEGLDMAQYPMDDEARQIFQDLAEEEFGYKTLVKRLGAVGRQELSTQIVVRLMEAGLLTGYDAQGEKVFVQGRLHFGGVGVEYEV | soluble
MAHHHHHHMSVGKPITRDSSKQLWRHIKSSGEEELTYTHNPYDDSPNRRKEREKSLNVCRHYAEGRCNRGSTCRFHHETRHNIIVTPHVTPKFSSIAPLKGLPTSPLGAYLSSPPNRSCNGCLLSPTHHNNSMSYNSSTNSSMKILSESSSTIPHLQLPESLSTHCRSSTYVASGMNGEQPPHDVLILSSSLGSLNVGDHVSRNNGGFLLTAQQR | not soluble
MKRILVSGGAGFIGSHLCTRLVNEGHDVICLDNFFTGSKDNIKHLMGNHHFEVVRHDVTYPYSAEVDEIYNLACPASPIHYQHDPIQTAKTSVMGAINMLGLAMRLDAKILQASTSEVYGDPIIHPQPESYWGNVNPVGYRSCYDEGKRCAETLFMDYYRQNQTRIKIIRIFNTYGPRMLPNDGRVVSNFIIQALNNEDITIYGDGKQTRSFQYIDDLIEGMVRMMDTEDDFTGPINIGNPNEFPVLELAERVIRMTGSTSKIVFKPLPTDDPKQRQPDIKLAKEKLGWQPTVELEDGLKRMIEYFKNV | not soluble
MLIRPNKVQKVGNLFMDTVHEEEIRLLNQLYDTLMKKDVEKADQLMDELLVDLEDHFTTEEELMREFEFFAYPMHKAEHDTMRKRFKEVYDKWKKEKNPEEVVRFLKEEFVPWLKSHVARWDSTTAQQLGD | not soluble
MGSDKIHHHHHHMNTIGERLKYLRKLNNLTQKQVAEKTGVQRGNISHYEKNDFLPSRVALISFANFFKTNYDWIVYGKGAIPKSIDEVMYAKSNSIAECNNGAAVDFSKRLIFTMKYFHETIDGLCLKLNISKDIFHEILIKKNVSAFDLFKICNYFNVSMDWMFNGNITYLKSDAKLQQAYLMNSKGNKPLSYDNHGMVQCTCEEKKLLIFFENLNTKDKSLVIDILNSVNNQASMDIQKLIK | not soluble
MSLTRIVLPGGAGLVGQNLVARLKARGYTNLVVLDKHEANLDVLRSVHPDITAVFADLAEPGDWARHFEGADVVVMLQAQIGAPTREPFVRNNIDSTRCVLEVIKQHAIPYTVHISSSVVKSVGEDWYTETKREQEAIVLASGIGCVVLRPTLMFGWFDRKHLGWLSRFMQRVPVFPIPGSGRYMRQPLYVGDFCNVIISCIDSRIQGQTFDITGLERIDYIDIIRQIKRVTRARCAIVRIPYGLFHILLKVYALFSKNPPFTADQLKALTAGDEFDVIDWERIFAIRATPFAQAMEETFNDPTYSHIALEEGHHHHHH | soluble
MGSDKIHHHHHHMLVELKKPKLKDGKDQLRSYCNATGSPIAVWTNGDQISYYQRKDPNYFEDIPGLPNANQTLADILQIKFTLEDLIANDKLVKENKSLKTLIEEMEDDVLANAGVDVFEELFKLIFTKLYDEWYSGQGNRRSTRSLEFRNTGQTEAALKTKIQDLFDKAKKKWEGVFSEDAKISLTPSHLSVCVSSLENVKLFNSNLDVIDEAFEYLINQSSKGEKGQFFTPRYVIDLCVKMLNPQEDEYMIDTAAGSSGFPVHTIFHVWRQILDDEGLSASHLFSLEDKPPRCKEYVEDKVFAIDFDEKAVRVARTLNLIAGDGQTNVLHLNTLDYELWDEVTEQDDWDDIYHEGFKRLKRLRPKNSKDYREFQFDVLMANPPFAGDIKEPDTVGECNTYLYLKVLCKLKPSICRCSF | not soluble
MGSDKIHHHHHHAQQRTEYNRKGDEAMKRLDYSDAKMWYEEGVSQCDAYSIDQLTTIWLSNERMRPSMRSLMNKCLNCLTVKATEDDPDAISKLIIYYSEGIGTPKSEELATYWKEYQEILLKPAEPAAQPIDSAAVSPKKRMEFFAGYSYSIESPYGITVGGMGQRFGWYVRFKTNMSFMNYTDECNNQGQIIKFSNSEGESYELNTGKSSKTNSIAGTAGLIVKCFPWLYASVGLGYGERALLHSFTTHSYENYDSTREVWCRNIDSSYKGVAAEVDLMMKITNSVFISVGCNTVNFKYLDLNAGLGVFF | not soluble
MRFFVSGMPGVGKTTLAKRIADEVRREGFKVGGIITEEIREGGKRTGFRVIALDTGEIGRLAYVGYGYPRLGKYVIDVEGFERVAIPALSRALRGADLIVIDEIGPMEFKSNEFLKALGLVLKSEKHLLATVHRRLVDRYRPLGEYYWLTPENRNAVFSEILGRIKGLLKEKLEHHHHHH | soluble
PLGSQYFLKVLIPSYAAGSIIGKGGQTIVQLQKETGATIKLSKSKDFYPGTTERVCLIQGTIEALNAVHGFIAEKIREMPQNVAKTEPVSILQPQTTVNPDRANQVKIIVPNSTAGLIIGKGGATVKAIMEQSGAWVQLSQKPDGINLQNRVVTVSGEPEQNRKAVELIIQKIQEDPQ | soluble
MDSDSGEQSEGELSPGHESFNSKSLALQAQKKILSKMATMAVANLLTDDTSSEILDELYKASREYTKSKKEAHKIIKDVIKIALKIGILYRNHQFSPEEMETVERFKKKMNQAAMTVVSFYEVEYTFDRGILSELLLECRDLLHELVEHHLTMRSHGRIDHVFNHFADVDFLTELYGPSEDYRLNLRKICDGINKLLDEGTL | not soluble
MYKIMPLKVAEISVPLGVTIMMGDMRVMATGPVYVWVIDGGDEKIVVDSGVEEAKNGMFHGFPGKGGGEKGLREAMEKVNLKPEDVDKLIITHLHFDHAANAKLFTNARIYVQKREWESALNPPLHYRQTYDSSMLYPLEEMDLCLIDGDVEIAEGVKAVLLPGHTKGLQGVAVETEKGTYLLAADHFYTYFNFFPPKQPIQMTDTAGNTVEIPTSPLPFLPPGLHVDLSEWYESCFKALSVAKKANILPGHDPSLEGRVFPLEHHHHHH | not soluble
MRGSHHHHHHGSMAVPPTYADLGKSARDVFTKGYGFGLIKLDLKTKSENGLEFTSSGSANTETTKVNGSLETKYRWTEYGLTFTEKWNTDNTLGTEITVEDQLARGLKLTFDSSFSPNTGKKNAKIKTGYKREHINLGCDVDFDIAGPSIRGALVLGYEGWLAGYQMNFETSKSRVTQSNFAVGYKTDEFQLHTNVNDGTEFGGSIYQKVNKKLETAVNLAWTAGNSNTRFGIAAKYQVDPDACFSAKVNNSSLIGLGYTQTLKPGIKLTLSALLDGKNVNAGGHKLGLGLEFQA | soluble
MATLIYVDKENGEPGTRVVAKDGLKLGSGPSIKALDGRSQVSTPRFGKTFDAPPALPKATRKALGTVNRATEKSVKTKGPLKQKQPSFSAKKMTEKTVKAKSSVPASDDAYPEIEKFFPFNPLDFESFDLPEEHQIAHLPLSGVPLMILDEERELEKLFQLGPPSPVKMPSPPWESNLLQSPSSILSTLDVELPPVCCDIDILEHHHHHH | not soluble
MKGLKERQDRRLGAFLGLAVGDALGAQVEGLPKGTFPEVREMKGGGPHRLPPGFWTDDTSQALCLAESLLQRGFDPKDQMDRYLRWYREGYRSATGVCFGLGHATRRALERYAATGDPYAGDEAGAGNGPLMRLAPLVLAYENHPDLLSLARRAARTTHGAREALEATEVLAWLLREALRGAPKEALLALEPFRGADLHPALRRVVEGGFWEAPEEGPGYAPGTLAAALWAFARGRDFEEGMRLAVNLGGDADTVGAVYGQLAGAYYGLGAIPGRWLRALHLREEMEALALALYRMSMASPRE | soluble
MSLSFSAKVKGEICRYIDISKEEALAQISAIMKVCGTLAFSGRQISFKMTTENPASARLMFTILKDYFDIHAKLMVKKSNSLKKNNIYMVVVTEEMGVKKLLEITGILREIDGIMSLDYHIDENLVDTEEKKKAYIRGAFIGGGSISNPEKTYHLEFVTHSQEYAEDLGKLINTFGLKAKVIQRKNSYIVYIKEGEQIVDLLNIIGAHTALLELENIRIMKEMRNNVNRLVNCETANLSKTVNAAVRQVESIKLIEREIGLARLPKNLREVAELRLTYPEESLKELGEMLEPPVGKSGVNHRLRKIEKIAEELRTGNEGHHHHHH | soluble
RQTRIMDSAQYAEFCESRQLSFSKKASKFRDWLDCSSMEIKPNVVAMEILAYLAYETVAQLVDLALLVRQDMVTKAGDPFSHAISATFIQYHNSAESTAACGVEAHSDAIQPCHIREAIRRYSHRIGPLSPFTNAYRRNGMAFLAC | soluble
MSEENRVGSKIRQLREARDMTVEELAEASQSSSELIQQLENGALVPSLTPLLKIARALGVRLGTFLDDMPQSGPVLVRSGLSENVVRFSGKTERPKKSALEFYSLASDKADRHMEPFIIDIHPSPEESHTLSSHEGEEFIYVLSGEIEIFYGKDVHRLSEGDSIYYDSIVPHDVHAAGKEDARIMAVVYAPL | not soluble
MQVSIVNEHKYRELEPLNEMLVKRGGVKMIPEPKFVISGLVDNEEYVIKLRIDLADEFRYSYQNQQWTPFAPSTKNSKLSAITETEHRKETGATWNMRIVQFDKLLITREFNDIQRNVIHVEPNHKYIPVLTIQNVTTGKSTEFQFQQMEFIAVKSYQSARIRHTKRAPRKMNLAPGSSQKPQLIVPDILHSPTYGFTAAPPPFPFEYWLLYPQIQYQIQQLAYSLPMGPPMVPIHHIQCTEASQRVYAPEYGWNSILMPGAHKEQDDHYMFHHEIWAPQDHELEKLHVLTEQKNKPSETPQ | not soluble
MGSDKIHHHHHHMASLVDQITDLYVRMAELERRNRNRRRKGTIAEVSDDKSKYRVKLSEQAGKPYLTPWIKARTLAAGGVKVDVLYSVGEQVDVVSENGEMTDAQIDFSTYSDDNARENSDTPFHIKIGDTVIEASAGQAKVTSPKVIVESPNVQLGGDGGKRVARIGDLVHVMSGSSSGKWPIVEGSEHVFAVD | not soluble
